{"source": "patent US20260116963A1", "about": "(GENERATE BIOMEDICINES, published 2026)", "binders": {"B1": {"name": "NB-13 (antibody, human IgG4 S228P, kappa)", "heavy": "QVTLRESGPALVKPTQTLTLTCTVSGFSLSAYSVNWIRQPPGKALEWLAMIWGDGKIVYNSALKSRLTISKDTSKNQVVLTMTNMDPVDTATYYCAGDGYYPYAMDNWGQGSLVTVSSASTKGPSVFPLAPCSRSTSESTAALGCLVKDYFPEPVTVSWNSGALTSGVHTFPAVLQSSGLYSLSSVVTVPSSSLGTKTYTCNVDHKPSNTKVDKRVESKYGPPCPPCPAPEFLGGPSVFLFPPKPKDTLYITREPEVTCVVVDVSQEDPEVQFNWYVDGVEVHNAKTKPREEQFNSTYRVVSVLTVLHQDWLNGKEYKCKVSNKGLPSSIEKTISKAKGQPREPQVYTLPPSQEEMTKNQVSLTCLVKGFYPSDIAVEWESNGQPENNYKTTPPVLDSDGSFFLYSRLTVDKSRWQEGNVFSCSVMHEALHNHYTQKSLSLSLGK", "light": "DIVMTQSPDSLSVSLGERATINCRASKSVDSYGNSFMHWYQQKPGQPPKLLIYLASNLESGVPDRFSGSGSGTDFTLTISSLQAEDVAVYYCQQNNEDPRTFGGGTKVEIKRTVAAPSVFIFPPSDEQLKSGTASVVCLLNNFYPREAKVQWKVDNALQSGNSQESVTEQDSKDSTYSLSSTLTLSKADYEKHKVYACEVTHQGLSSPVTKSFNRGEC"}, "B2": {"name": "NB-6 (antibody, human IgG4 S228P, kappa, V domains shown)", "VH": "QVTLRESGPALVKPTQTLTLTCTVSGASLSAYSVNWIRQPPGKALEWLAMISGDGKIVYNSALKSRLTISKDTSKNQVVLTMTNMDPVDTATYYCAGDGYYPYAMDNWGQGSLVTVSS", "VL": "DIVMTQSPDSLSVSLGERATINCRASKSVDSYGNSFMHWYQQKPGQPPKLLIYLASNLESGVPDRFSGSGSGTDFTLTISSLQAEDVAVYYCQQNNEDPRTFGGGTKVEIKR"}, "B3": {"name": "NB-1 (antibody, human IgG4 S228P, kappa, V domains shown)", "VH": "B2 VH with S52W, D98L, N107L", "VL": "B2 VL"}, "B4": {"name": "NB-3 (antibody, human IgG4 S228P, kappa, V domains shown)", "VH": "B2 VH with A31S, S52W, D98E, N107V", "VL": "B2 VL with F36Y"}, "B5": {"name": "NB-5 (antibody, human IgG4 S228P, kappa, V domains shown)", "VH": "B2 VH with S52W, D54S", "VL": "B2 VL"}, "B6": {"name": "NB-10 (antibody, human IgG4 S228P, kappa, V domains shown)", "VH": "B2 VH with S52W", "VL": "B2 VL with S31Y, R100L"}, "B7": {"name": "NB-2 (antibody, human IgG4 S228P, kappa, V domains shown)", "VH": "B2 VH with A27F, S52W, D98L", "VL": "B2 VL"}, "B8": {"name": "NB-8 (antibody, human IgG4 S228P, kappa, V domains shown)", "VH": "B2 VH with S52W, D98E, N107Y", "VL": "B2 VL"}, "B9": {"name": "NB-4 (antibody, human IgG4 S228P, kappa, V domains shown)", "VH": "B2 VH with S52W", "VL": "B2 VL with R100L"}, "B10": {"name": "NB-7 (antibody, human IgG4 S228P, kappa, V domains shown)", "VH": "B2 VH with A27F, S52W", "VL": "B2 VL with R100L"}, "B11": {"name": "NB-9 (antibody, human IgG4 S228P, kappa, V domains shown)", "VH": "B2 VH with A27F, S52W, D54S", "VL": "B2 VL"}}, "note": "Positions count from the first letter of the chain named."}
{"molecular_target": "T1, human IL-13 (human, UniProt P35225 25-146, limits assumed)", "T1 construct": "The KinExA antigen was detected with an anti-HIS IgG, so it probably carried a HIS tag; also called Interleukin-13; hIL-13", "T1 sequence (P35225 other isoform, or with tags, fused parts or gaps limits assumed)": "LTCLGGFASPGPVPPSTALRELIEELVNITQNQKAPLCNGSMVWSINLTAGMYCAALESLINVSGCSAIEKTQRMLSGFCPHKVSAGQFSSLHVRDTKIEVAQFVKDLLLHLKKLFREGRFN", "assay": "SPR array (Carterra LSA), antibody captured on anti-human pAb HC30M chip, human IL-13 0.05-100 nM as analyte, 25 C, 1:1 fit", "units": {"Kd": "nM", "koff": "s⁻¹", "kon": "M⁻¹ s⁻¹"}}
{"binder": "B1", "Kd": "< 0.1"}
{"binder": "B2", "Kd": 3.34, "koff": 0.000855, "kon": 258000}
{"binder": "B3", "Kd": 5.21, "koff": 0.000601, "kon": 117000}
{"binder": "B4", "Kd": 1.89, "koff": 0.00047, "kon": 290000}
{"binder": "B5", "Kd": 4.24, "koff": 0.00127, "kon": 303000}
{"binder": "B6", "Kd": 13.6, "koff": 0.000805, "kon": 62000}
{"binder": "B7", "Kd": 6.67, "koff": 0.000618, "kon": 93000}
{"binder": "B8", "Kd": 2.56, "koff": 0.000674, "kon": 259000}
{"binder": "B9", "Kd": 13.6, "koff": 0.000987, "kon": 74000}
{"binder": "B10", "Kd": 8.35, "koff": 0.000827, "kon": 100000}
{"binder": "B11", "Kd": 2.41, "koff": 0.000734, "kon": 305000}
